Residue numbers refer to the chain shown, from its start. One block for each binder: values may come before it.
Experiments:
[1] = biological target: T1, ADAMTS13 in normal human plasma (human, UniProt Q76LX8 75-1427); assay: cell-based or functional assay
T1 sequence (looked up): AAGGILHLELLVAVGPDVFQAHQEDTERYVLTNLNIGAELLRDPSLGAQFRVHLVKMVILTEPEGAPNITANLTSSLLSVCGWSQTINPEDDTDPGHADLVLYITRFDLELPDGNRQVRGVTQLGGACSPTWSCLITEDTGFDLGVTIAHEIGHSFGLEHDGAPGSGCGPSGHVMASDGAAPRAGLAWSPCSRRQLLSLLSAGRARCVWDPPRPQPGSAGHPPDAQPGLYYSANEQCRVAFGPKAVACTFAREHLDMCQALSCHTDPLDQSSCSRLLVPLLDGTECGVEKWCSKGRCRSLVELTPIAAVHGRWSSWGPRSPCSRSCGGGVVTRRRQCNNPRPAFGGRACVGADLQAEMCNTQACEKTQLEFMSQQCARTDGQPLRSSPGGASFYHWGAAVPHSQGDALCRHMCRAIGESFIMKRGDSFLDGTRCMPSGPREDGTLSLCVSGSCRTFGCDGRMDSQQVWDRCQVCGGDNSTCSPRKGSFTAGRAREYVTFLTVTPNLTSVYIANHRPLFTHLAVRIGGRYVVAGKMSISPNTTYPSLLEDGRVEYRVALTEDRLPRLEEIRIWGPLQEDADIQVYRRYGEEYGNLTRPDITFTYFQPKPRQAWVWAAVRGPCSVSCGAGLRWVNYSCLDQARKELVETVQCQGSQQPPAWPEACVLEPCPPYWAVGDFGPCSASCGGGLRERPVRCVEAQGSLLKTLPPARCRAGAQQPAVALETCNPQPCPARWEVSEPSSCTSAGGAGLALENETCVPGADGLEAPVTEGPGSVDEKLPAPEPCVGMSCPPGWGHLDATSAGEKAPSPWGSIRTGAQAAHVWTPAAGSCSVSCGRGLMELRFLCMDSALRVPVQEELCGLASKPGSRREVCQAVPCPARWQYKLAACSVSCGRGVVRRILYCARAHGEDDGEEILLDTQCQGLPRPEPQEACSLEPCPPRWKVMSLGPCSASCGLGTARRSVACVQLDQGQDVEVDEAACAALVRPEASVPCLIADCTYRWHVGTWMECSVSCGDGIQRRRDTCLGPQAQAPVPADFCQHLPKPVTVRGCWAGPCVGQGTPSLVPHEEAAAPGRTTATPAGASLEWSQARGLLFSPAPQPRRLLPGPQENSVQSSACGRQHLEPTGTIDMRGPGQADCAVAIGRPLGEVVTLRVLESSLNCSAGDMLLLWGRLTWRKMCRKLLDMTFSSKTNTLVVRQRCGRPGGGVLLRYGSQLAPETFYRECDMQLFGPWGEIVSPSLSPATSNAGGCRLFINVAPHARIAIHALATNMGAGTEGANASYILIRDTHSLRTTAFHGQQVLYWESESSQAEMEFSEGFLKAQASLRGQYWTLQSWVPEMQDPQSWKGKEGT

[2] = biological target: von Willebrand factor (VWF) multimer in human plasma, P04275

ID50 concentration on the VWF cleaving activity of ADAMTS13 (ADAMTS13 activity remaining in human plasma, ELISA) [1]: ~7.28 µg/mL
B1: 1G2 antibody (antibody, mouse IgG1, kappa, V domains shown)
VH: QVQLRESGPGLVAPSQSLSITCTVSGFSLPRYGIHWVRQPPGKGLEWLGVIWAGGSTDYDSALMSRLSISKDTSKSQVFLKMSSLQTDDTAIYYCARAGGSQPFDYWGQGTTLTVSS
VL: DIKMTQSPSSMYASLGERVTITCKASRDINTYLSWFQQKPGKSPKTLISRANRLVDGVPSRFSGSGSGQDYSLSISSLEYEDMGFYYCLQYDEFPWTFGGGTKLVIKR

ID50 concentration on the VWF cleaving activity of ADAMTS13 (ADAMTS13 activity remaining in human plasma, ELISA) [1]: ~25.4 µg/mL
B2: 12D10 antibody (antibody, mouse IgG1, kappa, V domains shown)
VH: QVQLKESGPGLVAPSQSLSITCTVSGFSLTRYGVHWVRQPPGKGLEWLGVIWAGGSTNYKSALMSRLNITKDNSKSQVFLKMNGLQTDDTAIYFCARAGGSSSFDYWGQGTTLTVSS
VL: B1 VL with Y12N, R27Q, S34G, S49Y, D70G, S74T, F85I, V105E

ID50 concentration on the VWF cleaving activity of ADAMTS13 (ADAMTS13 activity remaining in human plasma, ELISA) [1]: ~19.5 µg/mL
B3: 9A7 antibody (antibody, mouse IgG2b, kappa, V domains shown)
VH: QVQLKESGPGLVAPSQSLSITCTVSGFSLTGYGIHWVRQPPGKGLEWLGVIWADGTTNSNSALMSRLSISKDNSKSQVFLKMTSLQTDDTAMYHCARAGGSQPFDYWGQGTTLTVSS
VL: B1 VL with R27Q, T31S, S49F, S74T, G84E, F85I, V105E

B4: ADAMTS13 in normal human plasma (protein)
chain: T1 sequence (looked up)
VWF multimer analysis (SDS-agarose gel, Western blot) of human plasma under high shear stress [2]: more deficiency in high-molecular-weight VWF multimer and stronger cleavage of VWF were shown with increase in shear stress of 108 dyne/cm^2, 216 dyne/cm^2, and 324 dyne/cm^2

— patent US20240425614A1 (NARA MEDICAL UNIVERSITY, published 2024)
